In patent publication US11505583B2, “Proteins for the treatment of epithelial barrier function disorders” (Second Genome, Inc., priority 2018, dated 2022):
Where a chain is given by its changes, count along the chain named. Names and notes keep the numbering of the source.

B1: SG-11 (SEQ ID NO:7): Recombinant SG-11 with N-terminal methionine, 233 amino acids, no N-terminal tag (protein)
chain: MLEGEESVVYVGKKGVIASLDVETLDQSYYDETELKSYVDAEVEDYTAEHGKNAVKVESLKVEDGVAKLKMKYKTPEDYTAFNGIELYQGKVVASLAAGYVYDGEFARVEEGKVVGAATKQDIYSEDDLKVAIIRANTDVKVDGEICYVSCQNVKLTGKDSVSIRDGYYLETGSVTASVDVTGQESVGTEQLSGTEQMEMTGEPVNADDTEQTEAAAGDGSFETDVYTFIVYK
B2: SG-11V5: SG-11 variant SEQ ID NO:19 comprising N53S, N83S, C147V, C151S with respect to SEQ ID NO:7 (protein)
chain: B1 chain with N53S, N83S, C147V, C151S

Columns and labels:
[1] = Post-translational modifications after storage, LC-MS/MS, SG-11 vs SG-11V5 (Example 10); assay type: physicochemical; conditions: for Oxidation of M1 (MLEGEESVVYVGK): 1 mg/ml in Buffer 1 (50 mM NaPO4, pH 8, 150 mM NaCl, 10% glycerol)
Protocol: In accordance with PTMs observed when SG-11 (SEQ ID NO:9) was subjected to stress conditions (Example 11), SG-11V5 (SEQ ID NO:19) was analyzed by LC-MS/MS for post translational modifications using the methods described in Example 11, and compared with PTMs for SG-11 (SEQ ID NO:7)
For this analysis, PTMs of wildtype SG-11 (SEQ ID NO:7) and SG-11V5 (SEQ ID NO:19) were compared. In the first analysis (results provided in Table 10 below), the proteins were stored at a concentration of 1 mg/ml in Buffer 1 (50 mM NaPO4^−, pH 8, 150 mM NaCl, 10% glycerol) and stored for 2 weeks at either 4° C. or 40° C. The proteins were then treated with DTT and IAA, followed by trypsin digestion. The digested samples were then analyzed by Waters ACQUITY UPLC couples to Xevo G2-XS QTOF mass spectrometer using a Protein BEH C18 column.
In a second analysis, the SG-11 (SEQ ID NO:7) and SG-11V5 (SEQ ID NO:19) proteins were each stored at 40° C. in a variety of buffers. The storage buffer used in this experiment was 100 mM NaPO4^−, pH7, with 10% sorbitol (+Sor) or without 10% sorbitol (−Sor) and with 10% glycerol (+Gly) or without 10% glycerol (−Gly) as indicated in Table 11. […] There were also differences in levels of N137 deamidation for the two proteins with the presence of at least glycerol and also the presence of both sorbitol and glycerol resulting in large decreases in N137 deamidation.

[2] = Stability in storage buffer formulations by analytical SEC (Example 11); assay type: physicochemical
Protocol: Although SG-11 protein is very stable at high temperature, forming aggregations at 37° C. in a week could be the problem at the downstream processing stage. Deamidation of asparagine residues found by LC/MS/MS are also a risk factor. In order to improve the manufacturability of a protein comprising SEQ ID NO:3 or variants thereof, the protein depicted as SG-11 (SEQ ID NO:7) was mutated to contain the following 4 substitutions: N53S, N83S, C147V and C151S. This variant with 4 substitutions is designated as SG-11V5, provided herein as SEQ ID NO:19. The stability of purified SG-11 and SG-11V5 was tested in different storage buffer formulations. SG-11V5 (SEQ ID NO:19) has about 98.3% sequence identity to SEQ ID NO:7.
Specifically, purified SG-11 (SEQ ID NO:7) was incubated in pH 5.2 (FIGS. 15A, 15B and 15C), pH 7.0 (FIGS. 15D, 15E and 15F) and pH 8.0 (FIGS. 15G, 15H and 15I). Effect of additives was also tested at the 3 different pH conditions: 150 mM NaCl (FIGS. 15A, 15D and 15G); 150 mM NaCl and 100 mM arginine (FIGS. 15B, 15E and 15H); and 150 mM NaCl and 0.5 M sorbitol (FIGS. 15C, 15F and 15I). Stability was analyzed by analytical SEC. Arrow heads indicate the retention time of the monomeric form.
SG-11V5 (SEQ ID NO:19) was incubated in pH 5.2 (FIGS. 16A, 16B and 16C), pH 7.0 (FIGS. 16D, 16E and 16F) and pH 8.0 (FIGS. 16G, 16H and 16I). Effect of additives was also tested at the 3 different pH conditions: 150 mM NaCl (FIGS. 16A, 16D and 16G); 150 mM NaCl and 100 mM Arg (FIGS. 16B, 16E and 16H); and 150 mM NaCl and 0.5 M sorbitol (FIGS. 16C, 16F and 16I). Stability was analyzed by analytical SEC. Arrow heads indicate the retention time of the monomeric form.

[3] = test system: human colonic epithelial cells (HCT8 enterocytes and HT29-MTX goblet cells) co-cultured with U937 monocytes; test: In vitro trans-epithelial electrical resistance (TEER) co-culture assay, barrier disruption by heat killed E. coli; assay type: cell-based; conditions: Example 12; 1 μg/ml (40 nM), 6 hours pre-incubation; HK E. coli alone 78.6%; FIG. 17
Protocol: Assays were performed as described below in trans-well plates where co-cultures of multiple cell types were performed utilizing a permeable membrane to separate cells. In the apical (top) chamber, human colonic epithelial cells, consisting of a mixture of enterocytes and goblet cells, were cultured until cells obtained tight junction formation and barrier function capacity as assessed by measurement of trans-epithelial electrical resistance (TEER). In the basolateral chamber, monocytes were cultured separately. Epithelial cells were primed with inflammatory cytokines. The assays measured the effect of a therapeutic protein, i.e., SG-11, on epithelial barrier function, muc2 gene expression, and production of cytokines.
Cell culture. The HCT8 human enterocyte cell line (ATCC Cat. No. CCL-244) was maintained in RPMI-1640 medium supplemented with 10% fetal bovine serum, 100 IU/ml penicillin, 100 μg/ml streptomycin, 10 μg/ml gentamicin and 0.25 μg/ml amphotericin (cRPMI). […]
Epithelial cell culture. […] Epithelial cells were trypsinized from culture flasks and viable cells determined by trypan blue counting. […]
Co-culture assay. […] Trans-epithelial electrical resistance (TEER) readings were measured after the IFN-γ treatment and were used as the pre-treatment TEER values. […]

[4] = 4° C., 2 weeks, 1 mg/ml in Buffer 1 (pH 8)
[5] = 40° C., 2 weeks, 1 mg/ml in Buffer 1 (pH 8)
[6] = 40° C., 100 mM NaPO4, pH7, +Sor (10% sorbitol) −Gly
[7] = 40° C., 100 mM NaPO4, pH7, +Sor +Gly
[8] = 40° C., 100 mM NaPO4, pH7, −Sor +Gly (10% glycerol)
[9] = 40° C., 100 mM NaPO4, pH7, −Sor −Gly

| Molecule | Oxidation of M1 (MLEGEESVVYVGK) ([1]; 4° C., 2 weeks) [%] | Deamidation of N137 (ANTDVK) [1, 4] [%] | Oxidation of M1 (MLEGEESVVYVGK) ([1]; 40° C., 2 weeks) [%] | Deamidation of N137 (ANTDVK) [1, 5] [%] | Deamidation of N137 [1, 6] [%] | Oxidation of M1 [1, 6] [%] | Deamidation of N137 [1, 7] [%] | Oxidation of M1 [1, 7] [%] | Deamidation of N137 [1, 8] [%] | Oxidation of M1 [1, 8] [%] | Deamidation of N137 [1, 9] [%] | Oxidation of M1 [1, 9] [%] | Behaviour at pH 5.2 [2] | TEER after HK E. coli (normalized, relative to untreated samples) [3] [%] | also measured |
| --- | --- | --- | --- | --- | --- | --- | --- | --- | --- | --- | --- | --- | --- | --- | --- |
| B1 | 8.9 | 1.0 | 12.5 | 0.9 | 2.6 | 12.1 | 2.5 | 27.8 | 3.0 | 38.6 | 0.9 | 20 | precipitated | 89.5 | Deamidation of N83 [1, 4]: 19.4%; Deamidation of N83 [1, 5]: 98.1%; Deamidation of N83 [1, 6]: 93.9%; Deamidation of N83 [1, 7]: 87.4%; Deamidation of N83 [1, 8]: 96.2%; Deamidation of N83 [1, 9]: 98.1%; Aggregate formation (analytical SEC) ([2]; 100 mM arginine at pH 7.0 (150 mM NaCl), FIG. 15): greatly suppressed |
| B2 | 2.5 | 0.1 | 4.7 | 0.3 | 3.3 | 3.3 | 0.1 | 5.9 | 0.4 | 5.6 | 1.5 | 2.7 | precipitated | 89.1 | Aggregation (analytical SEC) ([2]; all conditions tested: pH 5.2, 7.0, 8.0, 150 mM NaCl ± 100 mM arginine or 0.5 M sorbitol, FIG. 16): did not show large amount of aggregation; Stability compared with SG-11 ([2]; pH 7.0 and pH 8.0): improved stability; Small aggregation peak at 1.34 mL (analytical SEC) ([2]; with 100 mM arginine or 0.5 M sorbitol): suppressed |
